From article PMC7784689, “Structural mechanism of phospholipids translocation by MlaFEDB complex” (Cell Research, 2020) come the findings set out here.

Substitutions are numbered along the chain they refer to.

Sequences and labels used below:
B1: MlaE (natural protein, E. coli K-12, UniProt P64606 1-260, looked up)
chain: MLLNALASLGHKGIKTLRTFGRAGLMLFNALVGKPEFRKHAPLLVRQLYNVGVLSMLIIVVSGVFIGMVLGLQGYLVLTTYSAETSLGMLVALSLLRELGPVVAALLFAGRAGSALTAEIGLMRATEQLSSMEMMAVDPLRRVISPRFWAGVISLPLLTVIFVAVGIWGGSLVGVSWKGIDSGFFWSAMQNAVDWRMDLVNCLIKSVVFAITVTWISLFNGYDAIPTSAGISRATTRTVVHSSLAVLGLDFVLTALMFGN
notes: MlaE, the transmembrane (permease) subunit of the MlaFEDB ABC transporter, E. coli K-12; expressed from the full mlaFEDCB operon amplified from genomic DNA; Homodimer within the 2:2:6:2 MlaFEDB complex; also called TMD protein MlaE
B2: MlaD (natural protein, E. coli K-12, UniProt P64604 1-183, looked up)
chain: MQTKKNEIWVGIFLLAALLAALFVCLKAANVTSIRTEPTYTLYATFDNIGGLKARSPVSIGGVVVGRVADITLDPKTYLPRVTLEIEQRYNHIPDTSSLSIRTSGLLGEQYLALNVGFEDPELGTAILKDGDTIQDTKSAMVLEDLIGQFLYGSKGDDNKNSGDAPAAAPGNNETTEPVGTTK
notes: expressed from the full mlaFEDCB operon amplified from genomic DNA; Homo-hexamer within the 2:2:6:2 MlaFEDB complex
B3: MlaF (natural protein, E. coli K-12, UniProt P63386 1-269, looked up)
chain: MEQSVANLVDMRDVSFTRGNRCIFDNISLTVPRGKITAIMGPSGIGKTTLLRLIGGQIAPDHGEILFDGENIPAMSRSRLYTVRKRMSMLFQSGALFTDMNVFDNVAYPLREHTQLPAPLLHSTVMMKLEAVGLRGAAKLMPSELSGGMARRAALARAIALEPDLIMFDEPFVGQDPITMGVLVKLISELNSALGVTCVVVSHDVPEVLSIADHAWILADKKIVAHGSAQALQANPDPRVRQFLDGIADGPVPFRYPAGDYHADLLPGS
notes: expressed from the full mlaFEDCB operon amplified from genomic DNA; Homodimer within the 2:2:6:2 MlaFEDB complex; also called NBD protein MlaF
B4: MlaF E170Q (natural protein, E. coli K-12, UniProt P63386 1-269, looked up)
chain: B3 chain with E170Q
notes: MlaF, E. coli K-12, with the catalytic glutamate of Walker B changed to glutamine; expressed from the full mlaFEDCB operon; PDB 7CGE holds the wild-type parent; also called MlaFEQ; EQ mutant; source: E. coli C43(DE3), co-expressed from mutated pET20b-mlaFEDCB, purified as MlaFEQEDB, in nanodisc

Data set [1] concerns the molecule itself. Kind of data set: cryo-EM structure; nucleotide-free MlaFEDB in POPG nanodisc (MSP1D1), 4 mg/mL, 25 mM Tris pH 7.8, 150 mM NaCl; 2.9 Å.
The data set “MlaE” addresses B1. Described as above. Particulars: both partners purified.
Data set [2] deals with the molecule itself. Kind of data set: cryo-EM structure; MlaFEQEDB (MlaF E170Q) in nanodisc, incubated with 2 mM ATP and 2 mM MgCl2 for 30 min at room temperature; two conformations, EQ_tall (4.3 Å) and EQ_close (3.7 Å).

As usually defined, the stoichiometry N is a count of units in the complex or per binding partner.

As to B1, the “stoichiometry N” value in data set [1] is 2.
In the case of B2, the “stoichiometry N” value in the data set with MlaE came out at 3.
For B3, the “stoichiometry N” value in data set [1] came out at 2.
With B4, the “stoichiometry N” value in data set [2] stood at 2.
